Source: publication PMC6698733

T1: Dhr1 isolated C-terminal domain (CTD) (Saccharomyces cerevisiae, UniProt Q04217 1176-1267)
T1 sequence: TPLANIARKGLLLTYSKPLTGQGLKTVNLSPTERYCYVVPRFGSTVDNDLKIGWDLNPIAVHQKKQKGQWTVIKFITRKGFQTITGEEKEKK

B1: poly(A)15 (ssRNA)
RNA: AAAAAAAAAAAAAAA
B2: poly(U)15 (ssRNA)
RNA: UUUUUUUUUUUUUUU

Target: T1, Dhr1 isolated C-terminal domain (CTD)
Assay: not stated

| Binder | binding result |
| --- | --- |
| B1 | no binding |
| B2 | no binding |
